Consider 18 substances from patent US11306156.

The target of experiment [1] is D3H44 light chain Q124E_Q160E_T180E (Kabat) with N-terminal HA or FLAG tag. In words: LCCA, SPR read-out of light-chain tags; light-chain DNA 1:9 normalized to 1:1; competing light chain m21.
Experiment [2] shares this target. The experiment can be described thus: LCCA, SPR read-out of light-chain tags; light-chain DNA 1:3 normalized to 1:1; competing light chain m16.
Experiment [3] concerns the target D3H44 light chain Q124R_T178R (Kabat) with N-terminal HA or FLAG tag. The experiment can be described thus: LCCA, SPR read-out of light-chain tags; light-chain DNA 1:9 normalized to 1:1; competing light chain m17.
In experiment [4] the target is D3H44 light chain Q124E_Q160E_T180E (Kabat) with N-terminal HA or FLAG tag. The experiment can be described thus: LCCA, SPR read-out of light-chain tags; light-chain DNA 1:3 normalized to 1:1; competing light chain m18.
The target is the same in experiment [5]. The experiment can be described thus: LCCA, SPR read-out of light-chain tags; light-chain DNA 1:3 normalized to 1:1; competing light chain m20.
Experiment [6] has the same target. In words: LCCA, SPR read-out of light-chain tags; light-chain DNA 1:3 normalized to 1:1; competing light chain m21.
Experiment [7] addresses D3H44 light chain Q124K_T178R (Kabat) with N-terminal HA or FLAG tag. In words: LCCA, SPR read-out of light-chain tags; light-chain DNA 1:3 normalized to 1:1; competing light chain m17.
Experiment [8] addresses D3H44 light chain Q124R_T178R (Kabat) with N-terminal HA or FLAG tag. Described as above.
Experiment [9] addresses D3H44 light chain T178R (Kabat) with N-terminal HA or FLAG tag. Described as above.
For experiment [10], the target named is D3H44 light chain Q124R_Q160K_T178R (Kabat) with N-terminal HA or FLAG tag. The experiment is described as above.
Experiment [11] concerns the target D3H44 light chain Q124R_T178R (Kabat) with N-terminal HA or FLAG tag. In words: LCCA, SPR read-out of light-chain tags; light-chain DNA 1:3 normalized to 1:1; competing light chain m22.
Experiment [12] deals with D3H44 light chain Q124E_S131T_T178F_T180E (Kabat) with N-terminal HA or FLAG tag. The experiment can be described thus: LCCA, SPR read-out of light-chain tags; light-chain DNA 1:3 normalized to 1:1; competing light chain m21.
The target in experiment [13] is tissue factor (TF) antigen (UniProt P13726). The experiment can be described thus: SPR; Fab captured by anti-His, TF as analyte; LCCA set 9054.
Experiment [14] has the same target. In words: SPR; Fab captured by anti-His, TF as analyte; LCCA set 9053.
For experiment [15] the target is unchanged. In words: SPR; Fab captured by anti-His, TF as analyte; LCCA set 9058.
Experiment [16] has the same target. In words: SPR; Fab captured by anti-His, TF as analyte; LCCA set 9060.
Experiment [17] has the same target. In words: SPR; Fab captured by anti-His, TF as analyte; LCCA set 10549.
Experiment [18] shares this target. In words: SPR; Fab captured by anti-His, TF as analyte; LCCA set 9746.
Experiment [19] has the same target. In words: SPR; Fab captured by anti-His, TF as analyte; LCCA set 10549 (identifier in reverse orientation, assigned by Table 12).
Experiment [20] has the same target. The experiment can be described thus: SPR; Fab captured by anti-His, TF as analyte; LCCA set 9104; estimated from the Fab differing only in L chain tag.
The target is the same in experiment [21]. In words: SPR; Fab captured by anti-His, TF as analyte; LCCA set 9116.
Experiment [22] shares this target. In words: SPR; Fab captured by anti-His, TF as analyte; LCCA set 9347.
Experiment [23] has the same target. The experiment can be described thus: SPR; Fab captured by anti-His, TF as analyte; LCCA set 9375.
Experiment [24] shares this target. The experiment can be described thus: SPR; Fab captured by anti-His, TF as analyte; LCCA set 9374.
Experiment [25] shares this target. In words: SPR (ProteOn), Fab captured on anti-penta-His, TF as analyte, 1:1 fit.
Experiment [26] shares this target. In words: SPR (ProteOn), Fab captured on anti-penta-His, TF as analyte, 1:1 fit; estimated value (*) taken from the same Fab with another L chain tag.
The target is the same in experiment [27]. The experiment can be described thus: SPR; Fab captured by anti-His, TF as analyte; LCCA set 9813.
The target is the same in experiment [28]. The experiment can be described thus: SPR; Fab captured by anti-His, TF as analyte; LCCA set 9814.
Experiment [29] has the same target. The experiment can be described thus: SPR; Fab captured by anti-His, TF as analyte; LCCA set 9819.
The target is the same in experiment [30]. In words: SPR; Fab captured by anti-His, TF as analyte; LCCA set 9820.
Experiment [31] shares this target. In words: SPR; Fab captured by anti-His, TF as analyte; LCCA set 9822.
Experiment [32] has the same target. The experiment can be described thus: SPR; Fab captured by anti-His, TF as analyte; LCCA set 9823.
Experiment [33] shares this target. In words: SPR; Fab captured by anti-His, TF as analyte; LCCA set 9824.

With “D3H44 Fab heavy chain L143E_K145T_Q179D (Kabat) with C-terminal ABD2-His6 tag”, the H1L1:H1L2 normalized median ratio was 18% in experiment [1]; 14% in experiment [2]; 82% in experiment [3]; 24% in experiment [4]; 16% in [5]; 13% in experiment [6]. Besides, the H1L1:H1L2 normalized median ratio came to 86% in experiment [7], 87% in experiment [8], 76% in experiment [9] and 84% in experiment [10]. Besides, the H1L1:H1L2 normalized median scalar value ln(r1/f1) came out at 1.55 in [3]; 1.78 in experiment [7]; 1.9 in experiment [8]; 1.13 in experiment [9]; 1.68 in experiment [10].
Consider “D3H44 Fab heavy chain L143E_K145T_Q179E_S188L (Kabat) with C-terminal ABD2-His6 tag”, for which the figures for the H1L1:H1L2 normalized median ratio in experiment [11] and in experiment [12] were 77% and 23%, respectively. The H1L1:H1L2 normalized median scalar value ln(r1/f1) in [11] was determined as 1.19.
In experiment [13], “D3H44 Fab heterodimer, H A139G_Q179K_V190A / L Q124E_L135W_Q160E_T180E (H1L1 Fab of LCCA sets 9053, 9054)” showed a Change in KD with respect to wild type (-(log(KD design) - log(KD wt))) of 0.05 and a Kd of 0.14 nM. Also, in [14], the Change in KD with respect to wild type (-(log(KD design) - log(KD wt))) is 0.05 and the dissociation constant (Kd) worked out at 0.14 nM.
On to “D3H44 Fab heterodimer, H A139W_L143E_K145T_Q179E / L F116A_Q124R_L135V (H1L1 Fab of LCCA set 9058)”, for which, in [15], the Change in KD with respect to wild type (-(log(KD design) - log(KD wt))) was found to be 0.12 and the Kd turned out to be 0.12 nM.
Consider “D3H44 Fab heterodimer, H A139W_L143E_K145T_Q179E / L F116A_Q124R_L135V_T178R (H1L1 Fab of LCCA set 9060)”, for which, in experiment [16], the Change in KD with respect to wild type (-(log(KD design) - log(KD wt))) amounted to 0.04 and the Kd is 0.14 nM.
In the case of “D3H44 Fab heterodimer, H L45P_K145T_Q179E / L P44F_S131K (H1L1 Fab of LCCA sets 9746, 10549)”, the Change in KD with respect to wild type (-(log(KD design) - log(KD wt))) in experiment [17], in [18] and in experiment [19] was -0.35 throughout. The Kd in experiment [17], in experiment [18] and in experiment [19] was 0.35 nM throughout.
“D3H44 Fab heterodimer, H L124E / L S131T_V133G_S176R_T178Y (H1L1 Fab of LCCA set 9104)”: in experiment [20], the Change in KD with respect to wild type (-(log(KD design) - log(KD wt))) was -0.01 and the Kd is 0.16 nM.
“D3H44 Fab heterodimer, H L124E_A139W / L F116A_V133G_L135V_S176R (H1L1 Fab of LCCA set 9116)”: in [21], the Change in KD with respect to wild type (-(log(KD design) - log(KD wt))) is -0.02 and the Kd amounted to 0.16 nM.
In the case of “D3H44 Fab heterodimer, H L124R_A125R_H172T / L V133G_N137K_S174R_S176D (H1L1 Fab of LCCA set 9347)”, in experiment [22], the Change in KD with respect to wild type (-(log(KD design) - log(KD wt))) was -0.16 and the Kd came to 0.23 nM.
Take “D3H44 Fab heterodimer, H L124R_H172T / L V133G_N137K_S174R_S176D (H1L1 Fab of LCCA sets 9374, 9375)”: in experiment [23], the Change in KD with respect to wild type (-(log(KD design) - log(KD wt))) was -0.16 and the Kd came out at 0.23 nM. In [24], the Change in KD with respect to wild type (-(log(KD design) - log(KD wt))) was -0.16 and the Kd was 0.23 nM.
“D3H44 Fab heterodimer, H L143E_K145T_S188L / L Q124R”: in experiment [25], the Change in KD with respect to wild type (-(log(KD design) - log(KD wt))) was -0.12 and the Kd was found to be 0.21 nM. Also, in experiment [26], the Change in KD with respect to wild type (-(log(KD design) - log(KD wt))) is -0.12 and the Kd was 0.21 nM.
As for “D3H44 Fab heterodimer, H Q39E_K145T_H172R_Q179E / L Q38R_S131K (H1L1 Fab of LCCA set 9813)”, in experiment [27], the Change in KD with respect to wild type (-(log(KD design) - log(KD wt))) was -0.05 and the Kd came to 0.18 nM.
With “D3H44 Fab heterodimer, H Q39E_K145T_Q179E / L Q38R_S131K (H1L1 Fab of LCCA set 9814)”, in experiment [28], the Change in KD with respect to wild type (-(log(KD design) - log(KD wt))) is -0.01 and the dissociation constant Kd turned out to be 0.16 nM.
In experiment [29], “D3H44 Fab heterodimer, H Q39E_L143E_K145T_H172R_Q179E / L Q38R_Q124R_Q160K_T178R (H1L1 Fab of LCCA set 9819)” gave a Change in KD with respect to wild type (-(log(KD design) - log(KD wt))) of 0.03 and a Kd of 0.15 nM.
Turning to “D3H44 Fab heterodimer, H Q39E_L143E_K145T_Q179E / L Q38R_Q124R_Q160K_T178R (H1L1 Fab of LCCA set 9820)”, in experiment [30], the Change in KD with respect to wild type (-(log(KD design) - log(KD wt))) was -0.1 and the Kd is 0.2 nM.
In experiment [31], “D3H44 Fab heterodimer, H Q39R_D146G_Q179K / L Q38E_Q124E_Q160E_T180E (H1L1 Fab of LCCA set 9822)” had a Change in KD with respect to wild type (-(log(KD design) - log(KD wt))) of 0.17 and a Kd of 0.11 nM.
Turning to “D3H44 Fab heterodimer, H Q39R_H172R_Q179K / L Q38E_Q124E_Q160E_T180E (H1L1 Fab of LCCA set 9823)”, in [32], the Change in KD with respect to wild type (-(log(KD design) - log(KD wt))) is -0.18 and the Kd was 0.24 nM.
In experiment [33], “D3H44 Fab heterodimer, H Q39R_H172R_S186R / L Q38E_Q124E_Q160E_T180E (H1L1 Fab of LCCA set 9824)” returned a Change in KD with respect to wild type (-(log(KD design) - log(KD wt))) of 0.03 and a dissociation constant (Kd) of 0.15 nM.
